Patent publication US20030215838A1

Assays:
[1] = target: human zcytor17 and OSMRbeta co-expressed on transfected cells (human); test: cell-based or functional assay
[2] = target: human zcytor17, OSMRbeta and WSX-1 co-expressed on transfected cells (human); test: cell-based or functional assay
[3] = target: human zcytor17 and OSMRbeta co-expressed on transfected cells (human); test: flow cytometry; biotinylated zcytor17L at 0.010 µg/mL on BHK cells with zcytor17 + OSMRbeta, SA-PE
[4] = target: human OSMRbeta, full length, on transfected cells (human); test: flow cytometry; biotinylated zcytor17L at 0.37 µg/mL on BAF3 cells with OSMRbeta alone, SA-PE
[5] = target: human zcytor17 receptor, full length, on transfected cells (human); test: flow cytometry; biotinylated zcytor17L at 0.100 µg/mL on BHK cells with zcytor17 alone, SA-PE
[6] = target: human zcytor17 and OSMRbeta co-expressed on transfected cells (human); test: flow cytometry; biotinylated zcytor17L at 0.001 µg/mL on BHK cells with zcytor17 + OSMRbeta, SA-PE
[7] = target: human zcytor17 and OSMRbeta co-expressed on transfected cells (human); test: flow cytometry; biotinylated zcytor17L at 0.100 µg/mL on BHK cells with zcytor17 + OSMRbeta, SA-PE
[8] = target: human zcytor17 receptor, full length, on transfected cells (human); test: flow cytometry; biotinylated zcytor17L at 0.001 µg/mL on BHK cells with zcytor17 alone, SA-PE
[9] = target: human zcytor17 and OSMRbeta co-expressed on transfected cells (human); test: flow cytometry; no ligand (0.00 µg/mL, background) on BAF3 cells with zcytor17 + OSMRbeta, SA-PE
[10] = target: human zcytor17 receptor, full length, on transfected cells (human); test: flow cytometry; no ligand (0.0 µg/mL, background) on BHK cells with zcytor17 alone, SA-PE
[11] = target: human zcytor17 receptor, full length, on transfected cells (human); test: flow cytometry; biotinylated zcytor17L at 0.010 µg/mL on BHK cells with zcytor17 alone, SA-PE
[12] = target: human zcytor17 receptor, full length, on transfected cells (human); test: flow cytometry; biotinylated zcytor17L at 0.0001 µg/mL on BHK cells with zcytor17 alone, SA-PE
[13] = target: human OSMRbeta, full length, on transfected cells (human); test: flow cytometry; biotinylated zcytor17L at 1.11 µg/mL on BAF3 cells with OSMRbeta alone, SA-PE
[14] = target: human zcytor17 and OSMRbeta co-expressed on transfected cells (human); test: flow cytometry; biotinylated zcytor17L at 2.0 µg/mL on BHK cells with zcytor17 + OSMRbeta, SA-PE
[15] = target: human zcytor17 and OSMRbeta co-expressed on transfected cells (human); test: flow cytometry; no ligand (0.0 µg/mL, background) on BHK cells with zcytor17 + OSMRbeta, SA-PE
[16] = target: human OSMRbeta, full length, on transfected cells (human); test: flow cytometry; biotinylated zcytor17L at 2.0 µg/mL on BHK cells with OSMRbeta alone, SA-PE
[17] = target: human zcytor17 and OSMRbeta co-expressed on transfected cells (human); test: flow cytometry; biotinylated zcytor17L at 0.12 µg/mL on BAF3 cells with zcytor17 + OSMRbeta, SA-PE
[18] = target: human zcytor17 and OSMRbeta co-expressed on transfected cells (human); test: flow cytometry; biotinylated zcytor17L at 3.33 µg/mL on BAF3 cells with zcytor17 + OSMRbeta, SA-PE
[19] = target: human zcytor17 and OSMRbeta co-expressed on transfected cells (human); test: flow cytometry; biotinylated zcytor17L at 0.00001 µg/mL on BHK cells with zcytor17 + OSMRbeta, SA-PE
[20] = target: human zcytor17 and OSMRbeta co-expressed on transfected cells (human); test: flow cytometry; biotinylated zcytor17L at 0.0001 µg/mL on BHK cells with zcytor17 + OSMRbeta, SA-PE
[21] = target: human zcytor17 and OSMRbeta co-expressed on transfected cells (human); test: flow cytometry; biotinylated zcytor17L at 0.04 µg/mL on BAF3 cells with zcytor17 + OSMRbeta, SA-PE
[22] = target: human zcytor17 receptor, full length, on transfected cells (human); test: flow cytometry; biotinylated zcytor17L at 0.000001 µg/mL on BHK cells with zcytor17 alone, SA-PE
[23] = target: human zcytor17 receptor, full length, on transfected cells (human); test: flow cytometry; no ligand (0.0 ng/mL, background) on BAF3 cells with zcytor17 alone, SA-PE
[24] = target: human zcytor17 receptor, full length, on transfected cells (human); test: flow cytometry; biotinylated zcytor17L at 2.0 µg/mL on BHK cells with zcytor17 alone, SA-PE
[25] = target: human zcytor17 and OSMRbeta co-expressed on transfected cells (human); test: flow cytometry; biotinylated zcytor17L at 10.0 µg/mL on BAF3 cells with zcytor17 + OSMRbeta, SA-PE
[26] = target: human OSMRbeta, full length, on transfected cells (human); test: flow cytometry; biotinylated zcytor17L at 0.04 µg/mL on BAF3 cells with OSMRbeta alone, SA-PE
[27] = target: human OSMRbeta, full length, on transfected cells (human); test: flow cytometry; no ligand (0.0 µg/mL, background) on BHK cells with OSMRbeta alone, SA-PE
[28] = target: human OSMRbeta, full length, on transfected cells (human); test: flow cytometry; biotinylated zcytor17L at 0.12 µg/mL on BAF3 cells with OSMRbeta alone, SA-PE
[29] = target: human OSMRbeta, full length, on transfected cells (human); test: flow cytometry; biotinylated zcytor17L at 3.33 µg/mL on BAF3 cells with OSMRbeta alone, SA-PE
[30] = target: human OSMRbeta, full length, on transfected cells (human); test: flow cytometry; biotinylated zcytor17L at 10.0 µg/mL on BAF3 cells with OSMRbeta alone, SA-PE
[31] = target: human zcytor17 receptor, full length, on transfected cells (human); test: flow cytometry; biotinylated zcytor17L at 0.00001 µg/mL on BHK cells with zcytor17 alone, SA-PE
[32] = target: human zcytor17 receptor, full length, on transfected cells (human); test: flow cytometry; biotinylated zcytor17L at 1.0 ng/mL on BAF3 cells with zcytor17 alone, SA-PE
[33] = target: human zcytor17 and OSMRbeta co-expressed on transfected cells (human); test: flow cytometry; biotinylated zcytor17L at 0.37 µg/mL on BAF3 cells with zcytor17 + OSMRbeta, SA-PE
[34] = target: human zcytor17 receptor, full length, on transfected cells (human); test: flow cytometry; biotinylated zcytor17L at 100.0 ng/mL on BAF3 cells with zcytor17 alone, SA-PE
[35] = target: human OSMRbeta, full length, on transfected cells (human); test: flow cytometry; no ligand (0.00 µg/mL, background) on BAF3 cells with OSMRbeta alone, SA-PE
[36] = target: human zcytor17 and OSMRbeta co-expressed on transfected cells (human); test: flow cytometry; biotinylated zcytor17L at 1.11 µg/mL on BAF3 cells with zcytor17 + OSMRbeta, SA-PE
[37] = target: human zcytor17 and OSMRbeta co-expressed on transfected cells (human); test: flow cytometry; biotinylated zcytor17L at 0.000001 µg/mL on BHK cells with zcytor17 + OSMRbeta, SA-PE
[38] = target: human zcytor17 receptor, full length, on transfected cells (human); test: flow cytometry; biotinylated zcytor17L at 10.0 ng/mL on BAF3 cells with zcytor17 alone, SA-PE

Molecule: human zcytor17lig (untagged, in conditioned media) (ligand)
- proliferation of BaF3/zcytor17/OSMRbeta cells, Alamar Blue (activated CCRF-CEM and CCRF-HSB2 conditioned media) (fold over background) [1]: 10
- proliferation of BaF3/zcytor17/OSMRbeta cells, Alamar Blue (activated CD3+ selected human cell conditioned media) (fold over background) [1]: 15
- proliferation of BaF3/zcytor17/WSX-1/OSMRbeta cells, Alamar Blue (activated CCRF-CEM and CCRF-HSB2 conditioned media) (fold over background) [2]: 10
- proliferation of BaF3/zcytor17/WSX-1/OSMRbeta cells, Alamar Blue (activated CD3+ selected human cell conditioned media) (fold over background) [2]: 15

B1: biotinylated human zcytor17 ligand (ligand)
chain: LPVRLLRPSDDVQKIVEELQSLSKMLLKDVEEEKGVLVSQNYTLPCLSPDAQPPNNIHSPAIRAYLKTIRQLDNKSVIDEIIEHLDKLIFQDAPETNISVPTDTHECKRFILTISQQFSECMDLALKSLTSGAQQATT
modifications: biotin
- mean fluorescent intensity (MFI) [3]: 328
- mean fluorescent intensity (MFI) [4]: 5
- mean fluorescent intensity (MFI) [5]: 1600
- mean fluorescent intensity (MFI) [6]: 53
- mean fluorescent intensity (MFI) [7]: 2130
- mean fluorescent intensity (MFI) [8]: 39
- mean fluorescent intensity (MFI) [9]: 7
- mean fluorescent intensity (MFI) [10]: 15
- mean fluorescent intensity (MFI) [11]: 244
- mean fluorescent intensity (MFI) [12]: 16
- mean fluorescent intensity (MFI) [13]: 5
- mean fluorescent intensity (MFI) [14]: 3780
- mean fluorescent intensity (MFI) [15]: 13
- mean fluorescent intensity (MFI) [16]: 13
- mean fluorescent intensity (MFI) [17]: 364
- mean fluorescent intensity (MFI) [18]: 508
- mean fluorescent intensity (MFI) [19]: 15
- mean fluorescent intensity (MFI) [20]: 17
- mean fluorescent intensity (MFI) [21]: 247
- mean fluorescent intensity (MFI) [22]: 14
- mean fluorescent intensity (MFI) [23]: 7
- mean fluorescent intensity (MFI) [24]: 3030
- mean fluorescent intensity (MFI) [25]: 531
- mean fluorescent intensity (MFI) [26]: 5
- mean fluorescent intensity (MFI) [27]: 0
- mean fluorescent intensity (MFI) [28]: 5
- mean fluorescent intensity (MFI) [29]: 5
- mean fluorescent intensity (MFI) [30]: 6
- mean fluorescent intensity (MFI) [31]: 15
- mean fluorescent intensity (MFI) [32]: 17
- mean fluorescent intensity (MFI) [33]: 441
- mean fluorescent intensity (MFI) [34]: 347
- mean fluorescent intensity (MFI) [35]: 11
- mean fluorescent intensity (MFI) [36]: 489
- mean fluorescent intensity (MFI) [37]: 14
- mean fluorescent intensity (MFI) [38]: 72
